Substitutions are numbered along the chain they refer to. Names and notes keep the numbering of the source.
T1: SecBA129C (A, otherwise wild-type) (Escherichia coli, UniProt P0AG86 1-155, A129C | C102L)
T1 sequence (looked up): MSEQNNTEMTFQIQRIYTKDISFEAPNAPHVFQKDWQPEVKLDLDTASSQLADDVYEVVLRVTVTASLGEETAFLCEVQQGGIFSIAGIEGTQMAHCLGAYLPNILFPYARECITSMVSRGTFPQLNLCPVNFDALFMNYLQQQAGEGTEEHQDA

T2: SecBQ12C E77K (B) (Escherichia coli, UniProt P0AG86 1-155, Q12C | E77K | C102L)
T2 sequence (looked up): T1 sequence (looked up) with Q12C, E77K, C129A

T3: SecBE77K parent carrying A129C (b) (Escherichia coli, UniProt P0AG86 1-155, E77K | A129C | C102L)
T3 sequence (looked up): T1 sequence (looked up) with E77K

B1: SecBL75Q (natural protein, Escherichia coli)
chain: MSEQNNTEMTFQIQRIYTKDISFEAPNAPHVFQKDWQPEVKLDLDTASSQLADDVYEVVLRVTVTASLGEETAFQCEVQQGGIFSIAGIEGTQMAHCLGAYCPNILFPYARECITSMVSRGTFPQLNLAPVNFDALFMNYLQQQAGEGTEEHQ
B2: SecB wild-type (natural protein, Escherichia coli, UniProt P0AG86 1-155, looked up)
chain: T1 sequence (looked up) with L102C, C129A
B3: SecB wild-type parent carrying Q12C (A) (natural protein, Escherichia coli, UniProt P0AG86 1-155, looked up)
chain: T1 sequence (looked up) with Q12C, C129A
B4: SecB142 parent carrying A129C (c) (domain or fragment, Escherichia coli, UniProt P0AG86 1-142, looked up)
chain: MSEQNNTEMTFQIQRIYTKDISFEAPNAPHVFQKDWQPEVKLDLDTASSQLADDVYEVVLRVTVTASLGEETAFLCEVQQGGIFSIAGIEGTQMAHCLGAYLPNILFPYARECITSMVSRGTFPQLNLCPVNFDALFMNYLQ
B5: SecB142,E77K parent carrying A129C (d) (domain or fragment, Escherichia coli, UniProt P0AG86 1-142, looked up)
chain: B4 chain with E77K
B6: SecB142 parent carrying Q12C (C) (domain or fragment, Escherichia coli, UniProt P0AG86 1-142, looked up)
chain: B4 chain with Q12C, C129A
B7: SecB142,E77K parent carrying Q12C (D) (domain or fragment, Escherichia coli, UniProt P0AG86 1-142, looked up)
chain: B4 chain with Q12C, E77K, C129A

Assays:
SecB (Escherichia coli) = SecB (Escherichia coli) (UniProt P0AG86); assay: ITC; settings: cited from earlier work
SecA [1] = target: T4, SecA (Escherichia coli, UniProt P10408 1-901); assay: SEC-MALS
T4 sequence (P10408 whole entry): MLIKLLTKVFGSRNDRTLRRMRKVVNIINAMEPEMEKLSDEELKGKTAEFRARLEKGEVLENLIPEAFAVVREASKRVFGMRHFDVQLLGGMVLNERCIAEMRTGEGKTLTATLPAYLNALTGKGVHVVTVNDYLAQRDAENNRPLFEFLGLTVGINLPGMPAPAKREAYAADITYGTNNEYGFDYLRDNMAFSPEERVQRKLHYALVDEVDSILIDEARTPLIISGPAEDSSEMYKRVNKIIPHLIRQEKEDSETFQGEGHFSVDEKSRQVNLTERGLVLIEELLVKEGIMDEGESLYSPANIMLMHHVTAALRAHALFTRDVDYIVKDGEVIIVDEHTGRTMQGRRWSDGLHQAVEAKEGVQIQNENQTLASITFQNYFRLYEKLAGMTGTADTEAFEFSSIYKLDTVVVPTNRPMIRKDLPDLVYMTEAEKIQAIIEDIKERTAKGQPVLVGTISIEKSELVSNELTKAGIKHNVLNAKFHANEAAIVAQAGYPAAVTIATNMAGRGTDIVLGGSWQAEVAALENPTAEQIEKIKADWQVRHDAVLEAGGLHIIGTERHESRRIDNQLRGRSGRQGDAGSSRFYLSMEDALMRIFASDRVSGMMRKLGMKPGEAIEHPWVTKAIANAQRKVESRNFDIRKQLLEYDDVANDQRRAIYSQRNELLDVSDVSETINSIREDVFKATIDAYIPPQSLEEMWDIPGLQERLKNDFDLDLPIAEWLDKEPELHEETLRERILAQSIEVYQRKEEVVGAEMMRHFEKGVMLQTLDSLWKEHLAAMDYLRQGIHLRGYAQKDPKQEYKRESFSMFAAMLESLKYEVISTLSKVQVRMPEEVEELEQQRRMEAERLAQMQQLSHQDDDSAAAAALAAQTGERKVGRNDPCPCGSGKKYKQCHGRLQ

AUC = target: the molecule itself; assay: AUC
SecA [2] = target: T4, SecA; assay: SEC
[3] = target: T1, SecBA129C (A, otherwise wild-type); assay: cross-linking
SecBQ12C E77K (B) = target: T2, SecBQ12C E77K (B); assay: cross-linking
[4] = target: B3; assay: cross-linking
[5] = target: B5; assay: cross-linking
[6] = target: T3, SecBE77K parent carrying A129C (b); assay: cross-linking
[7] = target: B4; assay: cross-linking

SecA 2-11 (from UniProt P10408)
Kd (SecB (Escherichia coli)): 30 µM

B1
stoichiometry N (SecA [1]): 1 SecA protomers per SecB tetramer

B2
binding result (AUC): binds | relative affinity (ratio of Kds) against radiolabeled SecB (SecA [2]): 0.82 unitless

B3
binding result [3]: binds

B4
binding result (SecBQ12C E77K (B)): binds

B5
binding result [4]: binds

B6
binding result [5]: binds | binding result [6]: binds | binding result [3]: binds

B7
binding result [6]: binds | binding result [7]: binds | binding result [3]: binds
